Assays:
[1] = target: RNAP core enzyme (UniProt P0A7Z4;P0A8V2;P0A8T7 1-329;1-1342;1-1407); experiment: EMSA; heparin added after complex formation (heparin-resistant); EMSA (Figs 3B, 4): 1x buffer 15 mM Tris-HCl pH 8, 100 mM KCl, 1 mM MgCl2, 1 mM DTT, 1 ug yeast RNA, 37 C 10-20 min, then heparin on ice; Fig 3A as in ref 29 without yeast RNA; pull-down: 10 mM Tris-HCl pH 7.8, 200 mM KCl, 1 mM MgCl2, 5% glycerol, 1 mM DTT, 4 C, heparin 100 ug/ml wash; conditions: protein: native; chain copies: 2;1;1; label: 32P; three stem-loops
[2] = target: RNAP core enzyme;sigma70 (Escherichia coli?;Escherichia coli?, UniProt P0A7Z4;P0A8V2;P0A8T7;P00579 1-329;1-1342;1-1407;1-613, |); experiment: as above; conditions: protein: native;recombinant; tags: ;; chain copies: 2;1;1;1; label: 32P; three stem-loops
[3] = target: RNAP (core or holo not stated) (UniProt P0A7Z4;P0A8V2;P0A8T7 1-329;1-1342;1-1407); experiment: competition; unlabeled IsrA 15-fold excess vs labeled IsrA; yeast RNA, heparin after; EMSA (Figs 3B, 4): 1x buffer 15 mM Tris-HCl pH 8, 100 mM KCl, 1 mM MgCl2, 1 mM DTT, 1 ug yeast RNA, 37 C 10-20 min, then heparin on ice; Fig 3A as in ref 29 without yeast RNA; pull-down: 10 mM Tris-HCl pH 7.8, 200 mM KCl, 1 mM MgCl2, 5% glycerol, 1 mM DTT, 4 C, heparin 100 ug/ml wash; conditions: protein: native; chain copies: 2;1;1; label: 32P; three stem-loops

Measured: binding result

Sequence of RNAP core enzyme;sigma70 (P0A7Z4 whole entry, chain 1 of 4): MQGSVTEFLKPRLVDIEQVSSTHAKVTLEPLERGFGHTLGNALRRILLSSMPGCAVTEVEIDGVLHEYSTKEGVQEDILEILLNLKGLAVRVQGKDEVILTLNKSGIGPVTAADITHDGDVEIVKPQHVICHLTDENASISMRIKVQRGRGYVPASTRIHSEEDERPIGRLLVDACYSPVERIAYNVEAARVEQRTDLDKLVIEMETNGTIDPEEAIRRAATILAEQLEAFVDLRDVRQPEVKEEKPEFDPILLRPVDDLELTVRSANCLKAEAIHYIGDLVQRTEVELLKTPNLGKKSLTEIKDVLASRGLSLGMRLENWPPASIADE
Sequence of RNAP core enzyme;sigma70 (P0A8V2 whole entry, chain 2 of 4): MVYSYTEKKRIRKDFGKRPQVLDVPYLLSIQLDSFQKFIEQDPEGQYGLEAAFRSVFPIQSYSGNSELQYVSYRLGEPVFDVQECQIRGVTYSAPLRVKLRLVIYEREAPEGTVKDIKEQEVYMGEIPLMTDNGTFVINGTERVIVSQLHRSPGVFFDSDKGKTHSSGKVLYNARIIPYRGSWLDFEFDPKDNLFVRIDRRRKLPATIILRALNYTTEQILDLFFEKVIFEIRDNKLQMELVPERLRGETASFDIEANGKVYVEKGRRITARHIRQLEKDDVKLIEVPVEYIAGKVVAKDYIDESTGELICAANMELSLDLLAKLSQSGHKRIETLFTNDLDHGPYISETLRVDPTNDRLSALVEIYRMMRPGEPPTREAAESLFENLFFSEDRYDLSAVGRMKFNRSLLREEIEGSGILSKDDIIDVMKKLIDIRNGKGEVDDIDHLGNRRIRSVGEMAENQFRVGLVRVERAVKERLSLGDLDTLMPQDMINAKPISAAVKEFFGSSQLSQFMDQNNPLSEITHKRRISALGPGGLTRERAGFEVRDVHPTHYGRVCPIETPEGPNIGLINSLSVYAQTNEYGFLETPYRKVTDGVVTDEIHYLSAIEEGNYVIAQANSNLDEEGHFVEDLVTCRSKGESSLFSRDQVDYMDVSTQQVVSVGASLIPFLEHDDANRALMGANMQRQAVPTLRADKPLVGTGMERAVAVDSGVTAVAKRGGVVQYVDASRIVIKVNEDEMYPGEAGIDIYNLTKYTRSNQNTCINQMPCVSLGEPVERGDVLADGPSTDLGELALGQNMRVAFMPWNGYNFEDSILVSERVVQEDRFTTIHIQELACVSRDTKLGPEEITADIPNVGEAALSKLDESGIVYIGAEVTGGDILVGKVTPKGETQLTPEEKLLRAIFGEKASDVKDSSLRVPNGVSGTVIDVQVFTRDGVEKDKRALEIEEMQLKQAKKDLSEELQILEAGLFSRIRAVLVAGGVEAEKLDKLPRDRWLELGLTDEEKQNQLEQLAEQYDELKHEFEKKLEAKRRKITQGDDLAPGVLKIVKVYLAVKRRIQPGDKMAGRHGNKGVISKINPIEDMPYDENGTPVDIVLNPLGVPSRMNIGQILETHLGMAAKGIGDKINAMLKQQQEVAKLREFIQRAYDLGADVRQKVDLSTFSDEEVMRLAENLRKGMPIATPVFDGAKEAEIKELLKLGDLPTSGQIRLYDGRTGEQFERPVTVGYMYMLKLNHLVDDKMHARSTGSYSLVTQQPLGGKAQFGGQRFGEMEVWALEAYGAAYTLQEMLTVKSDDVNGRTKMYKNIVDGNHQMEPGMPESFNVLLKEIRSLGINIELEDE
Sequence of RNAP core enzyme;sigma70 (P0A8T7 whole entry, chain 3 of 4): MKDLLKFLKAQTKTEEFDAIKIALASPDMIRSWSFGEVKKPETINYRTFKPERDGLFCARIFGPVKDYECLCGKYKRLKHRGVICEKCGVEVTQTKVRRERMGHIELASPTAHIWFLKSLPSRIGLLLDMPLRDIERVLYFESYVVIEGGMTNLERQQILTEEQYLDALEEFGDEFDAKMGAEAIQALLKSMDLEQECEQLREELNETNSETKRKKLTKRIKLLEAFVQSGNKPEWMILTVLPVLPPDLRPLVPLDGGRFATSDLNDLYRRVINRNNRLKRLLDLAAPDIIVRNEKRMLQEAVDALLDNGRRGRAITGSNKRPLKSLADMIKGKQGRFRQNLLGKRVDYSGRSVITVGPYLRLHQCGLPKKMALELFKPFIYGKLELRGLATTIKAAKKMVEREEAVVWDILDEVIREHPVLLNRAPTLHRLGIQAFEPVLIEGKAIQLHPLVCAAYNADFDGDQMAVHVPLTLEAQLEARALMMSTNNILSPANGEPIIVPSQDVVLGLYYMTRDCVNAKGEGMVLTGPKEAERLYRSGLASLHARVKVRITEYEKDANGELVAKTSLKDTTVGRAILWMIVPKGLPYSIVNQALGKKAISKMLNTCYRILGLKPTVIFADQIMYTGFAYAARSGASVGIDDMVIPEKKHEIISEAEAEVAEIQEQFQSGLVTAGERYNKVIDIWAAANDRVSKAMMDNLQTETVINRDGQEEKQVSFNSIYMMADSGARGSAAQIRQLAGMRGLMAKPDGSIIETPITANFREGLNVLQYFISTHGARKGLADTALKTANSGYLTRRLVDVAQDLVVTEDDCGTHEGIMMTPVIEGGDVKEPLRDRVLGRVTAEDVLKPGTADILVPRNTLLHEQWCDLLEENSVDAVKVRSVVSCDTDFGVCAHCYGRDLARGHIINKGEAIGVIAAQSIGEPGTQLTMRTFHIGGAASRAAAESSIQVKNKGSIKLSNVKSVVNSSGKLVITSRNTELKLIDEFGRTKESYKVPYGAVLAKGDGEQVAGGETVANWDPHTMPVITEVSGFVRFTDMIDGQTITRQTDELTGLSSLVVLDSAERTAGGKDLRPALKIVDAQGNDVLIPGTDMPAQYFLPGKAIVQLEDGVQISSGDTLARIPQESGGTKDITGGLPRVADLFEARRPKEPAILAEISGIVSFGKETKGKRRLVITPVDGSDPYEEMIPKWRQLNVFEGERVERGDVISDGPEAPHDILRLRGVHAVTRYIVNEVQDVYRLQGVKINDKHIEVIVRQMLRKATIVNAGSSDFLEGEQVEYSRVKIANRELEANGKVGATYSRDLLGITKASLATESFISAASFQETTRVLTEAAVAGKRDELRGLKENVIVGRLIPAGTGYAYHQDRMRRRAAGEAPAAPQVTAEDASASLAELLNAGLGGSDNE
Sequence of RNAP core enzyme;sigma70 (P00579 whole entry, chain 4 of 4): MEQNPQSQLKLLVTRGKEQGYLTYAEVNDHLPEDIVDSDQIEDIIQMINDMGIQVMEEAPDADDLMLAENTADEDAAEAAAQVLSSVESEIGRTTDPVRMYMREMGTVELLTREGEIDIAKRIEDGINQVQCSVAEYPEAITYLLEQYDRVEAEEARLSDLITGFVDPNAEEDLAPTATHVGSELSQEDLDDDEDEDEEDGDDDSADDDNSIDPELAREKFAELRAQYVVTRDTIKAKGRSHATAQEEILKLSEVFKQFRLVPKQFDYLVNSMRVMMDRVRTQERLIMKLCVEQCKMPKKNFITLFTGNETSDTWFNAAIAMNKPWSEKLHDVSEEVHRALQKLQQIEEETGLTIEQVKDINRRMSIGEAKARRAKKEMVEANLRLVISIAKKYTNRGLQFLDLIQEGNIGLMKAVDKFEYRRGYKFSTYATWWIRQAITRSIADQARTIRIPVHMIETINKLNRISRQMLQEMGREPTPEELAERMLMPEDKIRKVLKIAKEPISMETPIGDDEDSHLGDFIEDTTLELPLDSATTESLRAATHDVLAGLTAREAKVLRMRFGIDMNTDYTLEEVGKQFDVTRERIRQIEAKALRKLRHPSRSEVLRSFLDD

B1: IsrA (IS61, McaS) (structured_RNA)
RNA: ACCGGCGCAGAGGAGACAAUGCCGGAUUUAAGACGCGGAUGCACUGCUGUGUGUACUGUAGAGUCUGGCGGAUGUCGACAGACUCUAUUUUUUU
binds: all assays above
